Values quoted from earlier work in publication PMC5725453.

Target: PI4KB (Homo sapiens) (UniProt Q9UBF8)
UniProt Q9UBF8, sequence (Q9UBF8 2-816): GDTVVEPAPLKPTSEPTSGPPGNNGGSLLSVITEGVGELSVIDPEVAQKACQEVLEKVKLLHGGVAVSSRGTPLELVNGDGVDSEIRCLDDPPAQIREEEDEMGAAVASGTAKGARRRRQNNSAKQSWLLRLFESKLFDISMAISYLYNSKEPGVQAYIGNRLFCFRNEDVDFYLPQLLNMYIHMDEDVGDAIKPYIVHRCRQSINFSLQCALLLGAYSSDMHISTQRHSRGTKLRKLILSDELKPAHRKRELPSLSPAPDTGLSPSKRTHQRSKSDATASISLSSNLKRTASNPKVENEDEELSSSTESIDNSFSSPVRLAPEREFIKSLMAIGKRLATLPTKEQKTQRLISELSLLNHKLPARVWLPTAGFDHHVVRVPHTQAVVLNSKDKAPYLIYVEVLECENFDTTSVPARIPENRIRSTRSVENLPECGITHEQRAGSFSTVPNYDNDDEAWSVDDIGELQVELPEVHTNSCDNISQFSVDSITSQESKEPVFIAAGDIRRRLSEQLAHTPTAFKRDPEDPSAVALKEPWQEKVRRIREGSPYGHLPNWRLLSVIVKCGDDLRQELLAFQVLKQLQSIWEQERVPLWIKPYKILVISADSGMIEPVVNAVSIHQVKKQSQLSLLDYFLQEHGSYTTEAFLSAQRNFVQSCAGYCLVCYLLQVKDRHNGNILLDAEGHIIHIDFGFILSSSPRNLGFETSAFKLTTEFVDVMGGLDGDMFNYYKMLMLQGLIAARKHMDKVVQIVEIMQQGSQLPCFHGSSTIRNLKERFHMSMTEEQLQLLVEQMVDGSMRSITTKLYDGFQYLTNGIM

Kd: 0.32 µM
Substance: ACBD3 (from UniProt Q9H3P7)
